According to article PMC5910400 (2018):
Residue numbers refer to the chain shown, from its start.

B1: P1156 (evasin from Ixodes ricinus), purified, C-terminal StrepII:His tag (natural protein)
chain: DGGADDDNELFTVQYCGMNCTKDEGGTWTGCTGKKEGCKCYHESGKNYGLCLSTEYTDFSQYGNPSDSEIEAAKPKRSDTLSH
B2: CCL23 (ligand)
chain: RVTKDAETEFMMSKLPLENPVLLDRFHATSADCCISYTPRSIPCSLLESYFETNSECSKPGVIFLTKKGRRFCANPSDKQVQVCMRMLKLDTRIKTRKN
B3: CCL18 (protein)
chain: AQVGTNKELCCLVYTSWQIPQKFIVDYSETSPQCPKPGVILLTKRGRQICADPNKKWVQKYISDLKLNA
B4: CCL11 (protein)
chain: not shown
B5: CCL16 (protein)
chain: QPKVPEWVNTPSTCCLKYYEKVLPRRLVVGYRKALNCHLPAIIFVTKRNREVCTNPNDDWVQEYIKDPNLPLLPTRNLSTVKIITAKNGQPQLLNSQ
B6: CCL5 (ligand)
chain: SPYSSDTTPCCFAYIARPLPRAHIKEYFYTSGKCSNPAVVFVTRKNRQVCANPEKKWVREYINSLEMS
B7: CCL3L1 (ligand)
chain: APLAADTPTACCFSYTSRQIPQNFIADYFETSSQCSKPSVIFLTKRGRQVCADPSEEWVQKYVSDLELSA
B8: CCL13 (ligand)
chain: not shown
B9: CCL14 (protein)
chain: TKTESSSRGPYHPSECCFTYTTYKIPRQRIMDYYETNSQCSKPGIVFITKRGHSVCTNPSDKWVQDYIKDMKEN
B10: CCL24 (protein)
chain: VVIPSPCCMFFVSKRIPENRVVSYQLSSRSTCLKAGVIFTTKKGQQFCGDPKQEWVQRYMKNLDAKQKKASPRARAVAVKGPVQRYPGNQTTC
B11: CCL3 (ligand)
chain: SLAADTPTACCFSYTSRQIPQNFIADYFETSSQCSKPGVIFLTKRSRQVCADPSEEWVQKYVSDLELSA
B12: CCL27 (protein)
chain: FLLPPSTACCTQLYRKPLSDKLLRKVIQVELQEADGDCHLQAFVLHLAQRSICIHPQNPSLSQWFEHQERKLHGTLPKLNFGMLRKMG
B13: CCL19 (protein)
chain: GTNDAEDCCLSVTQKPIPGYIVRNFHYLLIKDGCRVPAVVFTTLRGRQLCAPPDQPWVERIIQRLQRTSAKMKRRSS
B14: CCL8 (protein)
chain: QPDSVSIPITCCFNVINRKIPIQRLESYTRITNIQCPKEAVIFKTKRGKEVCADPKERWVRDSMKHLDQIFQNLKP
B15: CCL4L1 (protein)
chain: APMGSDPPTACCFSYTARKLPRNFVVDYYETSSLCSQPAVVFQTKRGKQVCADPSESWVQEYVYDLELN
B16: CCL4 (protein)
chain: B15 chain with G47S
B17: CCL15 (protein)
chain: QFTNDAETELMMSKLPLENPVVLNSFHFAADCCTSYISQSIPCSLMKSYFETSSECSKPGVIFLTKKGRQVCAKPSGPGVQDCMKKLKPYSI
B18: CCL17 (protein)
chain: ARGTNVGRECCLEYFKGAIPLRKLKTWYQTSEDCSRDAIVFVTVQGRAICSDPNNKRVKNAVKYLQSLERS
B19: CCL21 (ligand)
chain: SDGGAQDCCLKYSQRKIPAKVVRSYRKQEPSLGCSIPAILFLPRKRSQAELCADPKELWVQQLMQHLDKTPSPQKPAQGCRKDRGASKTGKKGKGSKGCKRTERSQTPKGP

Each binder was assayed against CXCL2 (human, UniProt P19875 35-107) (assay: BLI).
With B1 the Kd was 51 nM.

Each binder was assayed against CXCL6 (human) (assay: BLI).
B1 was tested, and the Kd was 63 nM.

These binders were tested against CXCL1 (human, UniProt P09341 35-107) (assay: BLI).
In the case of B1, the Kd is reported as 5.8 nM.

Each binder was assayed against CXCL8 (human) (assay: BLI).
CXCL8 (human), sequence (chain, as listed by the source): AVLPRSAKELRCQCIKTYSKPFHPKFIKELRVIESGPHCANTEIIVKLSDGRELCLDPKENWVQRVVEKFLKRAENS
With B1 the Kd was 2.9 nM.

What follows are binders tested against CXCL3 (human, UniProt P19876 35-107) (assay: BLI).
With B1 the Kd was 70 nM.

What follows are binders tested against CXCL5 (human) (assay: BLI).
For B1, the Kd was 30 nM.

Each binder was assayed against P1243:G4S:P1156 two-warhead evasin (Amblyomma americanum | Ixodes ricinus, UniProt A0A0C9S461;V5HBW0) (assay: BLI).
B2 showed a Kd of 0.37 nM.
Work on B3 yielded a Kd of 0.3 nM.
B4 showed a Kd of 5.1 nM.
B5 gave a Kd of 0.93 nM.
Binder B6 has a Kd of 3.4 nM.
With B7 the Kd was 6.4 nM.
Work on B8 yielded a Kd of 1.5 nM.
B9 gave a Kd of 2.1 nM.
Binder B10 has a Kd of 9.4 nM.
With B11 the Kd was 25 nM.
With B12 the Kd was 23 nM.
Work on B13 yielded a Kd of 2.5 nM.
Work on B14 yielded a Kd of 93 nM.
Work on B15 yielded a Kd of 14 nM.
B16 showed a Kd of 12 nM.
B17 was tested, and the Kd was 11 nM.
B18 was tested, and the Kd was 4.5 nM.

These binders were tested against P1156:G4S:P1243 two-warhead evasin (Ixodes ricinus | Amblyomma americanum, UniProt V5HBW0;A0A0C9S461) (assay: BLI).
B2 was tested, and the Kd was 0.098 nM.
In the case of B3, the Kd is reported as 0.001 nM.
Binder B19 has a Kd of 29 nM.
B4 gave a Kd of 1.7 nM.
B5 gave a Kd of 0.65 nM.
Work on B6 yielded a Kd of 2.6 nM.
Work on B7 yielded a Kd of 5.3 nM.
With B8 the Kd was 0.7 nM.
B9 showed a Kd of 1.1 nM.
B10 gave a Kd of 4.5 nM.
Binder B12 has a Kd of 17 nM.
With B13 the Kd was 3 nM.
Binder B14 has a Kd of 84 nM.
B15 was tested, and the Kd was 15 nM.
In the case of B16, the Kd is reported as 12 nM.
Work on B17 yielded a Kd of 12 nM.
For B18, the Kd was 5.4 nM.
